Source: the supplement of paper PMC7125110
± gives the standard error. Fewer inactive variants are shown than the library holds.

B1: glmS ribozyme (parent)
chain: AUAAAAGCGCCAGAACUACAGAAAUGUAGUUGACGAGGAGGAGGUUUAUCGAAUUUUCGGCGGAUGCCUCCAAA

Variants of: B1
Experiment: self-cleavage kobs at 2500 uM GlcN6P; higher = faster cleavage; RNA array
Details: with glucosamine-6-phosphate
In short: (§1)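 Using a hybridised Cy3 probe at 37 °C, barcoded ribozyme variants transcribed in situ by E. coli RNA polymerase on sequenced MiSeq chips were monitored across tiles imaged over ~14 h. The flow contained glucosamine-6-phosphate from 40 μM to 10 mM in HEPES/KCl/Mg(OAc)2 buffer. Signals were normalised to baseline and to non-cleaving reference variants before per-tile medians were fit to one- or two-exponential decays to yield kobs. Weighted Michaelis–Menten fits across concentrations gave kcat and KM.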

| Variant | self-cleavage kobs at 2500 uM GlcN6P |
| --- | --- |
| C8A G59C C67G | < 1e-05 s⁻¹ |
| G9C G13C C34A G62C A64G | < 1e-05 s⁻¹ |
| C11A C50U C61U C67G | 0.000136 ± 5.6e-05 s⁻¹ |
| C8G A36C A53C | < 1e-05 s⁻¹ |
| C10U U45A | 2.72e-05 ± 1.3e-05 s⁻¹ |
| A6U G44A A48U G63A U65C | < 1e-05 s⁻¹ |
| C11U A15G G37C U47C U69G | 0.000136 ± 5.1e-05 s⁻¹ |
| C10G G41A C58G | < 1e-05 s⁻¹ |
| G7U U31C G32C G35C A36C C71U | < 1e-05 s⁻¹ |
| C8A G40C U47A A64U | < 1e-05 s⁻¹ |
| C11U U30A G37C U49A | < 1e-05 s⁻¹ |
| C8A G40C C67A | < 1e-05 s⁻¹ |
| A12C A14G U69G | 0.000112 ± 3.2e-05 s⁻¹ |
| C10A C11A G51U A52U | < 1e-05 s⁻¹ |
| C8A C58A G59C | < 1e-05 s⁻¹ |
| C11A A14C A42C U55C A64G | < 1e-05 s⁻¹ |
| G9A U30A | < 1e-05 s⁻¹ |
| C11G U55A C61A U69A C71G | 0.000284 ± 8.5e-05 s⁻¹ |
| C11U C34G U54C | < 1e-05 s⁻¹ |
| C10U C58A C71U | < 1e-05 s⁻¹ |
| C11U A15C A48G U55A | < 1e-05 s⁻¹ |
| G9A A12C G59C | < 1e-05 s⁻¹ |
| C8A G41A G44U | < 1e-05 s⁻¹ |
| C11A A12U G32U C50U U56A C58A | < 1e-05 s⁻¹ |
| A6U U30A A33C U45G C58A | < 1e-05 s⁻¹ |
| C8G G13U A39U C68G | < 1e-05 s⁻¹ |

| Variant | self-cleavage kobs at 2500 uM GlcN6P |
| --- | --- |
| C10U C11U G13C A42U U54A | < 1e-05 s⁻¹ |
| C8U A12U A48U G62C U65A | < 1e-05 s⁻¹ |
| G7C C10A C16G C61A | < 1e-05 s⁻¹ |
| A12C C16U G40A | 0.00176 ± 0.00038 s⁻¹ |
| C10U G51U G60U | < 1e-05 s⁻¹ |
| C10G G35A G66A | < 1e-05 s⁻¹ |
| G9A G13U U57C | < 1e-05 s⁻¹ |
| G9C U46A C71U | < 1e-05 s⁻¹ |
| C11G U47A C50G C70G | 0.000352 ± 8.9e-05 s⁻¹ |
| C8A C16U A33U C68U | < 1e-05 s⁻¹ |
| C8A A33C A42G U65G | < 1e-05 s⁻¹ |
| G9C U45A | < 1e-05 s⁻¹ |
| C8G A52G U55G C67G C68U | 5.08e-05 ± 1.6e-05 s⁻¹ |
| G9U C50U C68U | < 1e-05 s⁻¹ |
| C10G U46G U55A A64C U69G | < 1e-05 s⁻¹ |
| C10U G29U A39G U57C C71A | < 1e-05 s⁻¹ |
| G7U U46G A48U | < 1e-05 s⁻¹ |
| G7A A14C U30A | < 1e-05 s⁻¹ |
| G9C A33C A48G U54G | < 1e-05 s⁻¹ |
| G9U A15C C68U | < 1e-05 s⁻¹ |
| C11U C16G C70G | 5.75e-05 ± 2.7e-05 s⁻¹ |
| C10G A12G U47G U54C C68U | < 1e-05 s⁻¹ |
| C8G A14G G32U A64U | < 1e-05 s⁻¹ |
| C8U G9U A15U G44U | < 1e-05 s⁻¹ |
| C10G A33G G51U | < 1e-05 s⁻¹ |
| C10G A36G A52U | < 1e-05 s⁻¹ |

| Variant | self-cleavage kobs at 2500 uM GlcN6P |
| --- | --- |
| G7U G43A U47G U56G | < 1e-05 s⁻¹ |
| C8U G9A U45A U69C | < 1e-05 s⁻¹ |
| C8U A14U G32U G41C C67U | < 1e-05 s⁻¹ |
| G9C G40U C67U | < 1e-05 s⁻¹ |
| C10G G37C U49G C68G U69G | 9.24e-05 ± 4.5e-05 s⁻¹ |
| C10A G35U A48C | < 1e-05 s⁻¹ |
| C11G G13U G29C | < 1e-05 s⁻¹ |
| C11A A33G G35U A52G | < 1e-05 s⁻¹ |
| C8U G37U G62U A64U | < 1e-05 s⁻¹ |
| G9A C16G U69A | < 1e-05 s⁻¹ |
| C11U C34A G44A | < 1e-05 s⁻¹ |
| G7C A14U G32U A36G G43C | < 1e-05 s⁻¹ |
| C8U C34U G41U | < 1e-05 s⁻¹ |
| C11A C16U U54G G59A | 0.000138 ± 3e-05 s⁻¹ |
| C11G U31A A42C | < 1e-05 s⁻¹ |
| G7U C11U G51C | < 1e-05 s⁻¹ |
| C11G U46G G59C U65G | 0.000186 ± 8.3e-05 s⁻¹ |
| C10G U47G G51A | < 1e-05 s⁻¹ |
| G7U G32A A48G U54A | < 1e-05 s⁻¹ |
| A12C A15U U46A C71A | < 1e-05 s⁻¹ |
| C8G A14U A39G | < 1e-05 s⁻¹ |
| C8A A33C U45C G59A | < 1e-05 s⁻¹ |
| A6U U56A G63U | < 1e-05 s⁻¹ |
| C10A G29A A33G A48U | < 1e-05 s⁻¹ |
| C10A G66A C68A | 5.96e-05 ± 2.6e-05 s⁻¹ |

Variants of: B1
Experiment: self-cleavage kobs at 10000 uM GlcN6P; higher = faster cleavage; RNA array
Details: with glucosamine-6-phosphate
In short: as §1

| Variant | self-cleavage kobs at 10000 uM GlcN6P |
| --- | --- |
| C8G A36C A53C | < 1e-05 s⁻¹ |
| C10U U45A | 2.12e-05 ± 8.6e-06 s⁻¹ |
| C10U G51U G60U | < 1e-05 s⁻¹ |
| G9A G13U U57C | < 1e-05 s⁻¹ |
| C8G A52G U55G C67G C68U | 3.18e-05 ± 1.4e-05 s⁻¹ |
| G9U A15C C68U | < 1e-05 s⁻¹ |
| C11U C16G C70G | 0.000142 ± 4.4e-05 s⁻¹ |
| C10G A33G G51U | < 1e-05 s⁻¹ |
| C11A A33G G35U A52G | < 1e-05 s⁻¹ |
| C11G U31A A42C | < 1e-05 s⁻¹ |
| C8G A14U A39G | < 1e-05 s⁻¹ |
